Data: publication PMC8617079
Read-outs that look alike come from different tables or passages of the source.

Legend:
[1] = target: 26S proteasome (mouse (endogenous in striatum and hippocampus tissue)) (UniProt P62196); assay: co-IP
[2] = target: 26S proteasome (mouse (endogenous in striatum and hippocampus tissue)) (UniProt P62196); assay: co-IP; remark: listed apart in the source

Sequence of UniProt P62196 (P62196 whole entry, looked up): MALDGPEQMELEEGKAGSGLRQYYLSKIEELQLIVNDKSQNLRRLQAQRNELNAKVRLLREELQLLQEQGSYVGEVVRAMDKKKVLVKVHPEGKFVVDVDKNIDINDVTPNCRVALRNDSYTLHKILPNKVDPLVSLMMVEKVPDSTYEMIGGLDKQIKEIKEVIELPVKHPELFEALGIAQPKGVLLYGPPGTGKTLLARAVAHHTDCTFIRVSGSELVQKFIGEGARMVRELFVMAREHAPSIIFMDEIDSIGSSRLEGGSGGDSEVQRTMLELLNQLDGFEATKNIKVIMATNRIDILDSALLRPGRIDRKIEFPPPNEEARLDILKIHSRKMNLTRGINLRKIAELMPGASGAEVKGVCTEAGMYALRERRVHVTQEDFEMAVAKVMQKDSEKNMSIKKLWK

pixel total of the Eno2 band [1]: 9430 pixels
pixel total of the Eno2 band [2]: 12400 pixels
Substance: gamma-enolase (ENO2) (from UniProt P17183 1-434) (natural protein)
